Results from US6359194 (Takeda / Millennium, dated 2002).

B1: GAL4 transcriptional activation domain alone (other, UniProt P04386 768-881, looked up)
chain: ANFNQSGNIADSSLSFTFTNSSNGPNLITTQTNSQALSQPIASSNVHDNFMNNEITASKIDDGNNSKPLSPGWTDQTAYNAFGITTGMFNTTTMDDVYNYLFDDEDTPPNPKKE
notes: Two-hybrid control; also called GAL4 AD alone; GAL4 AD
B2: rchd534 protein fused to a flag peptide (transfected 293 cells or BAECs) (other, human, UniProt O43541-2 1-235, looked up)
chain: MSRMGKPIETQKSPPPPYSRLSPRDEYKPLDLSDSTLSYTETEATNSLITAPGEFSDASMSPDATKPSHWCSVAYWEHRTRVGRLYAVYDQAVSIFYDLPQGSGFCLGQLNLEQRSESVRRTRSKIGFGILLSKEPDGVWAYNRGEHPIFVNSPTLDAPGGRALVVRKVPPGYSIKVFDFERSGLQHAPEPDAADGPYDPNSVRISFAKGWGPCYSRQFITSCPCWLEILLNNPR
notes: Co-immunoprecipitation construct; also called Smad6; not shown: flag peptide for immunoprecipitation
B3: fchd540 protein fused to a flag peptide (transfected 293 cells or BAECs) (other, human, UniProt O15105 1-426, looked up)
chain: MFRTKRSALVRRLWRSRAPGGEDEEEGAGGGGGGGELRGEGATDSRAHGAGGGGPGRAGCCLGKAVRGAKGHHHPHPPAAGAGAAGGAEADLKALTHSVLKKLKERQLELLLQAVESRGGTRTACLLLPGRLDCRLGPGAPAGAQPAQPPSSYSLPLLLCKVFRWPDLRHSSEVKRLCCCESYGKINPELVCCNPHHLSRLCELESPPPPYSRYPMDFLKPTADCPDAVPSSAETGGTNYLAPGGLSDSQLLLEPGDRSHWCVVAYWEEKTRVGRLYCVQEPSLDIFYDLPQGNGFCLGQLNSDNKSQLVQKVRSKIGCGIQLTREVDGVWVYNRSSYPIFIKSATLDNPDSRTLLVHKVFPGFSIKAFDYEKAYSLQRPNDHEFMQQPWTGFTVQISFVKGWGQCYTRQFISSCPCWLEVIFNSR
notes: Co-immunoprecipitation construct; not shown: flag peptide (different from that on rchd534)

Key:
[1] = target: T1, GAL4 DNA-binding domain-fchd540 fusion (human, UniProt P04386 1-147; O15105 1-426); assay: yeast two-hybrid mating assay (HIS3 and lacZ reporters)
T1 construct: Yeast two-hybrid bait; also called fchd540 bait protein; pGBT9-fchd540
Excerpt: (§1) Yeast expression plasmids encoding the GAL4 DNA-binding domain either alone or fused in frame to fchd540, rchd534, Drosophilia MAD, DPC4, or p53 were transformed into MATa two-hybrid screening strain HF7c. Yeast expression plasmnids encoding the GAL4 transcriptional activation domain alone and GAL4 activation domain fusions to rchd534 and SV40 were transformed into MATα two-hybrid screening strain Y1 87. p53 and SV40 interact with each other and should not interact with the experimental proteins. The HF7c transformants were propagated as stripes on semisolid synthetic complete medium lacking L-tryptophan and the Y187 transformants were grown as stripes on semisolid synthetic complete medium lacking L-leucine. Both sets of stripes were replica plated in the form of a grid onto a single rich YPAD plate and the haploid strains of opposite mating types were allowed to mate overnight at 30° C. The yeast strains on the mating plate were then replica plated to a synthetic complete plate lacking L-leucine and L-tryptophan to select for diploids and incubated at 30° C. overnight. Diploid strains on the synthetic complete plate lacking L-leucine and L-tryptophan were replica plated to a synthetic complete plate lacking L-leucine, L-tryptophan, and L-histidine to assay HIS3 expression and a paper filter on a synthetic complete plate lacking L-leucine and L-tryptophan. The next day the paper filter was subjected to the paper filter beta-galactosidase assay to measure expression of the lacZ reporter gene. HIS3 expression was scored after 3 days of growth at 30° C.
(§2) It was confirmed that these rchd534 cDNAs encode proteins that physically interact specifically with fchd540. Yeast expression plasmids encoding the GAL4 DNA-binding domain either alone or fused in frame to fchd540, rchd534, Drosophila MAD, DPC4, and p53 were transformed into MATa two-hybrid screening strain HF7c. Yeast expression plasmids encoding the GAL4 transcriptional activation domain (GAL4 AD) alone and GAL4 activation domain fusions to tchv03a, tchvR4A and SV40 were transformed into MATα two-hybrid screening strain Y1 87. p53 and SV40 interact with each other and should not interact with the experimental proteins. The HF7c transformants were propagated as stripes on semi-solid synthetic complete medium lacking […].

[2] = target: T2, GAL4 DNA-binding domain alone (UniProt P04386 1-147); assay: as above
T2 construct: Two-hybrid control
Excerpt: as §1, §2

[3] = target: T3, GAL4 DNA-binding domain fusion to rchd534 (human, UniProt P04386 1-147; O43541 1-235, limits assumed); assay: as above
T3 construct: Yeast two-hybrid bait; also called rchd534 bait protein
Excerpt: as §1, §2

[4] = target: T4, GAL4 DNA-binding domain fusion to Drosophila MAD (Drosophila, UniProt P04386 1-147; P42003 1-455, limits assumed); assay: as above
T4 construct: Yeast two-hybrid bait; also called Dros; MAD; MAD bait protein
Excerpt: as §1, §2

[5] = target: T5, GAL4 DNA-binding domain fusion to DPC4 (UniProt P04386 1-147; Q13485 1-552, limits assumed); assay: as above
T5 construct: Yeast two-hybrid bait; also called DPC4 bait protein
Excerpt: as §1, §2

[6] = target: B3; assay: co-immunoprecipitation, BAECs against 293 cells, equal amounts of protein
Procedure: (§3) The interaction of the rchd534 and fchd540 proteins, observed in yeast cells as described above, was tested in mammalian endothelial cell tissue culture. Either bovine aortic endothelial cells (BAECs) or 293 cells (human embryonic kidney cells, ATCC Accession No. CRL-1573) were transfected with constructs encoding both the rchd534 and fchd540 proteins, each fused to a different flag peptide allowing for specific immunoprecipitation. […] The co-immunoprecipitation of rchd534 and fchd540 further supports that these proteins interact in human cells that are physiologically relevant to cardiovascular disease.
The ability of the rchd534 and fchd540 proteins to interact with themselves and with other protein members of the TGF-β signalling pathway (MADR1, MADR2, DPC4, TbR1, TSR1, ActR1b, ALK3, ALK6), was tested using this co-inmunoprecipitation method. Each gene was transfected alone and in various combinations with other TGF-β pathway genes in either 293 cells or BAECs. The rchd534 protein formed homodimers in 293 cells and BAECs. […] As mentioned above, the rchd534 and fchd540 proteins formed heterodimers in 293 cells and BAECs. This interaction is about 50 fold stronger in BAECs than 293 cells based on equal amounts of protein.

[7] = target: the molecule itself; assay: co-immunoprecipitation from transfected 293 cells or BAECs
Procedure: as §3

B1
binding result [1]: no binding
binding result [2]: no binding
binding result [3]: no binding
binding result [4]: no binding
binding result [5]: no binding

B2
fold stronger interaction in BAECs than in 293 cells [6]: ~50 fold

B3
binding result [7]: no binding
